# Results published in patent US10941182 (Amgen, dated 2021).
# Starred links: 1 amine or outer side, 2 acyl side, 3 side chain; linkers in the order of their positions; H or OH if unused. Non-standard residues stand in square brackets, D forms with d. *: point of attachment. AC4Abu = α-carboxy-4-aminobutyric acid, O=C(C(CCN[*:1])C(=O)[*:3])[*:2]; Oic = O=C(O)[C@@H]1C[C@@H]2CCCC[C@@H]2N1; Phe(4-Cl) = N[C@@H](Cc1ccc(Cl)cc1)C(=O)O; dPhe(4-I) = N[C@H](Cc1ccc(I)cc1)C(=O)O; γGlu = O=C(O)[C@H](CCC(=O)[*:2])N[*:1]; dIgl = N[C@@H](C(=O)O)C1Cc2ccccc2C1; B4ClF = β-4-chloro-L-phenylalanine; NMeR = CN[C@@H](CCCNC(=N)N)C(=O)O; Tridecanoyl = CCCCCCCCCCCCC(=O)*; hArg = N=C(N)NCCCC[C@H](N)C(=O)O; Cha = N[C@@H](CC1CCCCC1)C(=O)O; αMeL = CC(C)C[C@](C)(N)C(=O)O; Aic = NC1(C(=O)O)Cc2ccccc2C1; Tle = CC(C)(C)[C@H](N)C(=O)O; Nle = CCCC[C@H](N)C(=O)O; Deg = CCC(N)(CC)C(=O)O; AEEA = NCCOCCOCC(=O)O; Aib = CC(C)(N)C(=O)O
# T1: rat APJ receptor (rat, UniProt Q9JHG3 1-377)
# T1 sequence (looked up): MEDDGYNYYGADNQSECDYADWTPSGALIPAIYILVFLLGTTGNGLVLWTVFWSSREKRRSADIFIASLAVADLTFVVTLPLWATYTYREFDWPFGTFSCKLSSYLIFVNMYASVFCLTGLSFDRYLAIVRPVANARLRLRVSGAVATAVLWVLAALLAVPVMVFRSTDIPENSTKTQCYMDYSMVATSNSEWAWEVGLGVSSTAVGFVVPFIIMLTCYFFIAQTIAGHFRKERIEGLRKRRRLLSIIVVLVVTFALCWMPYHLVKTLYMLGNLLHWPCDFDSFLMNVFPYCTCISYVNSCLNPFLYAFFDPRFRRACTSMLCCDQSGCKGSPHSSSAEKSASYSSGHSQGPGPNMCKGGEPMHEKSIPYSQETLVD
# T2: human APJ receptor (human, UniProt P35414 1-380)
# T2 sequence (looked up): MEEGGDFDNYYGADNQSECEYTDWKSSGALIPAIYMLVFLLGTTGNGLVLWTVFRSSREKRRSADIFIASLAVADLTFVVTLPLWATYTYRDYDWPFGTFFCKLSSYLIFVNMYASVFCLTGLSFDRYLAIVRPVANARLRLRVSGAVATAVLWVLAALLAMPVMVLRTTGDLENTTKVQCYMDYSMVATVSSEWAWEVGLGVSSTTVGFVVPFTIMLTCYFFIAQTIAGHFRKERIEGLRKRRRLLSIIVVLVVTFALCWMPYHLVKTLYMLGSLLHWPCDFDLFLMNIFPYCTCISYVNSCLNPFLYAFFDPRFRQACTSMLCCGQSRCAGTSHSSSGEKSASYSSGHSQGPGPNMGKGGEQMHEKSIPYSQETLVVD
# B1: Apelin polypeptide SEQ ID NO: 433 (peptide)
# peptide: Tridecanoyl-[γGlu][AEEA][AEEA][dQ][hArg]P[dR][Tle]SHKG[Oic][Nle]P[Phe(4-Cl)]-OH
# SMILES: CCCCCCCCCCCCC(=O)N[C@@H](CCC(=O)NCCOCCOCC(=O)NCCOCCOCC(=O)N[C@H](CCC(N)=O)C(=O)N[C@@H](CCCCNC(=N)N)C(=O)N1CCC[C@H]1C(=O)N[C@H](CCCNC(=N)N)C(=O)N[C@H](C(=O)N[C@@H](CO)C(=O)N[C@@H](Cc1c[nH]cn1)C(=O)N[C@@H](CCCCN)C(=O)NCC(=O)N1[C@H](C(=O)N[C@@H](CCCC)C(=O)N2CCC[C@H]2C(=O)N[C@@H](Cc2ccc(Cl)cc2)C(=O)O)C[C@@H]2CCCC[C@@H]21)C(C)(C)C)C(=O)O
# B2: Apelin polypeptide SEQ ID NO: 524 (peptide)
# peptide: Tridecanoyl-[γGlu][AEEA][AEEA][dQ]EP[NMeR][Cha]SHKG[Oic][Nle][Aib][Phe(4-Cl)]-OH
# SMILES: CCCCCCCCCCCCC(=O)N[C@@H](CCC(=O)NCCOCCOCC(=O)NCCOCCOCC(=O)N[C@H](CCC(N)=O)C(=O)N[C@@H](CCC(=O)O)C(=O)N1CCC[C@H]1C(=O)N(C)[C@@H](CCCNC(=N)N)C(=O)N[C@@H](CC1CCCCC1)C(=O)N[C@@H](CO)C(=O)N[C@@H](Cc1c[nH]cn1)C(=O)N[C@@H](CCCCN)C(=O)NCC(=O)N1[C@H](C(=O)N[C@@H](CCCC)C(=O)NC(C)(C)C(=O)N[C@@H](Cc2ccc(Cl)cc2)C(=O)O)C[C@@H]2CCCC[C@@H]21)C(=O)O
# B3: Apelin polypeptide SEQ ID NO: 431 (peptide)
# peptide: Tridecanoyl-[γGlu][AEEA][AEEA][dQ][hArg]P[dR][Cha]SHKG[Oic][Nle]P[dIgl]-OH
# SMILES: CCCCCCCCCCCCC(=O)N[C@@H](CCC(=O)NCCOCCOCC(=O)NCCOCCOCC(=O)N[C@H](CCC(N)=O)C(=O)N[C@@H](CCCCNC(=N)N)C(=O)N1CCC[C@H]1C(=O)N[C@H](CCCNC(=N)N)C(=O)N[C@@H](CC1CCCCC1)C(=O)N[C@@H](CO)C(=O)N[C@@H](Cc1c[nH]cn1)C(=O)N[C@@H](CCCCN)C(=O)NCC(=O)N1[C@H](C(=O)N[C@@H](CCCC)C(=O)N2CCC[C@H]2C(=O)N[C@@H](C(=O)O)C2Cc3ccccc3C2)C[C@@H]2CCCC[C@@H]21)C(=O)O
# B4: Apelin polypeptide SEQ ID NO: 432 (peptide)
# peptide: Tridecanoyl-[γGlu][AEEA][AEEA][dQ][hArg]P[dR][Cha]SHKG[Oic][Nle]P[B4ClF]-OH
# B5: Apelin polypeptide SEQ ID NO: 596 (peptide)
# peptide: Tridecanoyl-[γGlu][AEEA][AEEA][dQ][hArg]P[dR][Cha]SHKG[Oic][Nle][Oic]-OH
# SMILES: CCCCCCCCCCCCC(=O)N[C@@H](CCC(=O)NCCOCCOCC(=O)NCCOCCOCC(=O)N[C@H](CCC(N)=O)C(=O)N[C@@H](CCCCNC(=N)N)C(=O)N1CCC[C@H]1C(=O)N[C@H](CCCNC(=N)N)C(=O)N[C@@H](CC1CCCCC1)C(=O)N[C@@H](CO)C(=O)N[C@@H](Cc1c[nH]cn1)C(=O)N[C@@H](CCCCN)C(=O)NCC(=O)N1[C@H](C(=O)N[C@@H](CCCC)C(=O)N2[C@H](C(=O)O)C[C@@H]3CCCC[C@@H]32)C[C@@H]2CCCC[C@@H]21)C(=O)O
# B6: Apelin polypeptide SEQ ID NO: 595 (peptide)
# peptide: Tridecanoyl-[γGlu][AEEA][AEEA][dQ][hArg]P[dR][Cha]SHKG[Oic][Nle][Aic]-OH
# SMILES: CCCCCCCCCCCCC(=O)N[C@@H](CCC(=O)NCCOCCOCC(=O)NCCOCCOCC(=O)N[C@H](CCC(N)=O)C(=O)N[C@@H](CCCCNC(=N)N)C(=O)N1CCC[C@H]1C(=O)N[C@H](CCCNC(=N)N)C(=O)N[C@@H](CC1CCCCC1)C(=O)N[C@@H](CO)C(=O)N[C@@H](Cc1c[nH]cn1)C(=O)N[C@@H](CCCCN)C(=O)NCC(=O)N1[C@H](C(=O)N[C@@H](CCCC)C(=O)NC2(C(=O)O)Cc3ccccc3C2)C[C@@H]2CCCC[C@@H]21)C(=O)O
# B7: Apelin polypeptide SEQ ID NO: 397 (peptide)
# peptide: Tridecanoyl-[AC4Abu][AEEA][AEEA]Q[NMeR][αMeL]SHKG[Oic][Nle]P[Phe(4-Cl)]-OH
# SMILES: CCCCCCCCCCCCC(=O)NCCC(C(=O)O)C(=O)NCCOCCOCC(=O)NCCOCCOCC(=O)N[C@@H](CCC(N)=O)C(=O)N(C)[C@@H](CCCNC(=N)N)C(=O)N[C@@](C)(CC(C)C)C(=O)N[C@@H](CO)C(=O)N[C@@H](Cc1c[nH]cn1)C(=O)N[C@@H](CCCCN)C(=O)NCC(=O)N1[C@H](C(=O)N[C@@H](CCCC)C(=O)N2CCC[C@H]2C(=O)N[C@@H](Cc2ccc(Cl)cc2)C(=O)O)C[C@@H]2CCCC[C@@H]21
# B8: Apelin polypeptide SEQ ID NO: 373 (peptide)
# peptide: Tridecanoyl-[γGlu][AEEA][AEEA][dQ][hArg]P[dR][Cha]SYKG[Oic][Nle]P[Phe(4-Cl)]-OH
# SMILES: CCCCCCCCCCCCC(=O)N[C@@H](CCC(=O)NCCOCCOCC(=O)NCCOCCOCC(=O)N[C@H](CCC(N)=O)C(=O)N[C@@H](CCCCNC(=N)N)C(=O)N1CCC[C@H]1C(=O)N[C@H](CCCNC(=N)N)C(=O)N[C@@H](CC1CCCCC1)C(=O)N[C@@H](CO)C(=O)N[C@@H](Cc1ccc(O)cc1)C(=O)N[C@@H](CCCCN)C(=O)NCC(=O)N1[C@H](C(=O)N[C@@H](CCCC)C(=O)N2CCC[C@H]2C(=O)N[C@@H](Cc2ccc(Cl)cc2)C(=O)O)C[C@@H]2CCCC[C@@H]21)C(=O)O
# B9: Apelin polypeptide SEQ ID NO: 525 (peptide)
# peptide: Tridecanoyl-[γGlu][AEEA][AEEA][dQ][dE]P[NMeR][Cha]SHKG[Oic][Nle][Aib][Phe(4-Cl)]-OH
# SMILES: CCCCCCCCCCCCC(=O)N[C@@H](CCC(=O)NCCOCCOCC(=O)NCCOCCOCC(=O)N[C@H](CCC(N)=O)C(=O)N[C@H](CCC(=O)O)C(=O)N1CCC[C@H]1C(=O)N(C)[C@@H](CCCNC(=N)N)C(=O)N[C@@H](CC1CCCCC1)C(=O)N[C@@H](CO)C(=O)N[C@@H](Cc1c[nH]cn1)C(=O)N[C@@H](CCCCN)C(=O)NCC(=O)N1[C@H](C(=O)N[C@@H](CCCC)C(=O)NC(C)(C)C(=O)N[C@@H](Cc2ccc(Cl)cc2)C(=O)O)C[C@@H]2CCCC[C@@H]21)C(=O)O
# B10: Apelin polypeptide SEQ ID NO: 453 (peptide)
# peptide: Tridecanoyl-[AC4Abu][AEEA][AEEA][dQ][hArg]P[dR][Cha]SHKG[Oic][Nle][dPhe(4-I)]-OH
# SMILES: CCCCCCCCCCCCC(=O)NCCC(C(=O)O)C(=O)NCCOCCOCC(=O)NCCOCCOCC(=O)N[C@H](CCC(N)=O)C(=O)N[C@@H](CCCCNC(=N)N)C(=O)N1CCC[C@H]1C(=O)N[C@H](CCCNC(=N)N)C(=O)N[C@@H](CC1CCCCC1)C(=O)N[C@@H](CO)C(=O)N[C@@H](Cc1c[nH]cn1)C(=O)N[C@@H](CCCCN)C(=O)NCC(=O)N1[C@H](C(=O)N[C@@H](CCCC)C(=O)N[C@H](Cc2ccc(I)cc2)C(=O)O)C[C@@H]2CCCC[C@@H]21
# B11: Apelin polypeptide SEQ ID NO: 434 (peptide)
# peptide: Tridecanoyl-[γGlu][AEEA][AEEA][dQ][hArg]P[dR][Deg]SHKG[Oic][Nle]P[Phe(4-Cl)]-OH
# SMILES: CCCCCCCCCCCCC(=O)N[C@@H](CCC(=O)NCCOCCOCC(=O)NCCOCCOCC(=O)N[C@H](CCC(N)=O)C(=O)N[C@@H](CCCCNC(=N)N)C(=O)N1CCC[C@H]1C(=O)N[C@H](CCCNC(=N)N)C(=O)NC(CC)(CC)C(=O)N[C@@H](CO)C(=O)N[C@@H](Cc1c[nH]cn1)C(=O)N[C@@H](CCCCN)C(=O)NCC(=O)N1[C@H](C(=O)N[C@@H](CCCC)C(=O)N2CCC[C@H]2C(=O)N[C@@H](Cc2ccc(Cl)cc2)C(=O)O)C[C@@H]2CCCC[C@@H]21)C(=O)O
# Molecular target: T1, rat APJ receptor
# Assay: cell-based or functional assay
row,Binder,EC50 Rat APJ Receptor (GTPγS assay)
1,B1,19.8 nM
2,B2,346 nM
3,B3,25 nM
4,B4,16.2 nM
5,B5,33.9 nM
6,B6,54.8 nM
7,B7,16.5 nM
8,B8,3.31 nM
9,B9,243 nM
10,B10,20.8 nM
11,B11,11.4 nM

# Molecular target: T2, human APJ receptor
# Assay: cell-based or functional assay
row,Binder,EC50 Human APJ Receptor (GTPγS assay)
1,B1,12.8 nM
2,B2,53.2 nM
3,B3,31.2 nM
4,B4,11.1 nM
5,B5,5.13 nM
6,B6,50 nM
7,B7,6.36 nM
8,B8,2.81 nM
9,B9,158 nM
10,B10,19 nM
11,B11,11 nM
